Reference: patent US10544215B2, “1-(Chloromethyl)-2,3-dihydro-1H-benzo[e]indole dimer antibody-drug conjugate compounds, and methods of use and treatment” (priority 2013, dated 2020)

B1: ADC 125: Thio Hu Anti-CD33 15G15.33 HC A118C-MC-MMED-(CBI dimer phos); linker-CBI intermediate 57 (conjugate)
VH: QVQLVQSGAEVKKPGSSVKVSCKASGGIFSNHAISWVRQAPGQGLEWMGGIIPIFGTANYAQKFQGRVTITADESTSTAFMELSSLRSEDTAVYYCAREWADVFDIWGQGTMVTVSS
VL: EIVLTQSPLSLPVTPGEPASISCRSSQSLLHSNGYNYLDWYLQKPGQSPQLLIYLGVNSVSGVPDRFSGSGSGTDFTLKISRVEAEDVGVYYCMQALQTPWTFGQGTKVEIK
B2: ADC 127: Thio Hu Anti-CD33 15G15.33 HC A118C-MC-ED-(CBI dimer DVB diphos); linker-CBI intermediate 66 (conjugate)
VH: QVQLVQSGAEVKKPGSSVKVSCKASGGIFSNHAISWVRQAPGQGLEWMGGIIPIFGTANYAQKFQGRVTITADESTSTAFMELSSLRSEDTAVYYCAREWADVFDIWGQGTMVTVSS
VL: EIVLTQSPLSLPVTPGEPASISCRSSQSLLHSNGYNYLDWYLQKPGQSPQLLIYLGVNSVSGVPDRFSGSGSGTDFTLKISRVEAEDVGVYYCMQALQTPWTFGQGTKVEIK
B3: ADC 129: Thio Hu Anti-CD33 15G15.33 HC A118C-MC-ED-(CBI dimer DVB phos); linker-CBI intermediate 68 (conjugate)
VH: QVQLVQSGAEVKKPGSSVKVSCKASGGIFSNHAISWVRQAPGQGLEWMGGIIPIFGTANYAQKFQGRVTITADESTSTAFMELSSLRSEDTAVYYCAREWADVFDIWGQGTMVTVSS
VL: EIVLTQSPLSLPVTPGEPASISCRSSQSLLHSNGYNYLDWYLQKPGQSPQLLIYLGVNSVSGVPDRFSGSGSGTDFTLKISRVEAEDVGVYYCMQALQTPWTFGQGTKVEIK

The molecules below were run on EOL-1 (assay: EOL-1 in vitro cell viability (CellTiter-Glo cell proliferation assay)). Details: at 3 days versus ADC concentrations (μg/ml).
Type: cell-based, human
Text: The CellTiter-Glo® Luminescent Cell Viability Assay is a commercially available (Promega Corp., Madison, Wis.), homogeneous assay method based on the recombinant expression of Coleoptera luciferase (U.S. Pat. Nos. 5,583,024; 5,674,713; 5,700,670). This cell proliferation assay determines the number of viable cells in culture based on quantitation of the ATP present, an indicator of metabolically active cells (Crouch et al (1993) J. Immunol. Meth. 160:81-88; U.S. Pat. No. 6,602,677). The CellTiter-Glo® Assay was conducted in 96 well format, making it amenable to automated high-throughput screening (HTS) (Cree et al (1995) AntiCancer Drugs 6:398-404). The homogeneous assay procedure involves adding the single reagent (CellTiter-Glo® Reagent) directly to cells cultured in serum-supplemented medium. Cell washing, removal of medium and multiple pipetting steps are not required. The system detects as few as 15 cells/well in a 384-well format in 10 minutes after adding reagent and mixing. The cells may be treated continuously with ADC, or they may be treated and separated from ADC.
The homogeneous “add-mix-measure” format results in cell lysis and generation of a luminescent signal proportional to the amount of ATP present. The amount of ATP is directly proportional to the number of cells present in culture. […] Viable cells are reflected in relative luminescence units (RLU). […]
Efficacy of ADC was measured by a cell proliferation assay employing the following protocol ([…] GLO™ Luminescent Cell Viability Assay, Promega Corp. Technical Bulletin TB288; Mendoza et al (2002) Cancer Res. 62:5485-5488): • 1. […] The plate was incubated at room temperature for 10 minutes to stabilize the luminescence signal. • 8. Luminescence was recorded and reported in graphs as RLU=relative luminescence units. • Data are plotted as the mean of luminescence for each set of replicates, with standard deviation error bars. […]
In the case of B1, the “cell-killing activity (EOL-1 in vitro cell viability)” value (from here on “cell-killing activity”) is reported as “modest dose response cell-killing activity”. In the case of B2, the “cell-killing activity” value is reported as “potent, dose responsive cell-killing activity”. For B3, the “cell-killing activity” value was “potent, dose responsive cell-killing activity”.
